One data set concerns the target T1, SEQ ID NO: 3 peptide.
T1 chain: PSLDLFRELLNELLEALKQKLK

The target of the next data set is T2, SEQ ID NO: 5 peptide.
T2 chain: PTLDLFRELLNELLQKLKK

The target in the next data set is T3, SEQ ID NO: 12 peptide.
T3 chain: EVLKNLLEKLLEKLKELF

In the next data set the target is T4, SEQ ID NO: 2 peptide.
T4 chain: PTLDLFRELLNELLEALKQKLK

The next data set deals with T5, SEQ ID NO: 6 peptide.
T5 chain: PVLDLFRELLEELLQKLKK

The next data set concerns the target T6, SEQ ID NO: 14 peptide.
T6 chain: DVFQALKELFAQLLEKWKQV

The target in the next data set is T7, SEQ ID NO: 4 peptide.
T7 chain: PVLDLFRELLNELLQKLKK

A further data set deals with T8, SEQ ID NO: 13 peptide.
T8 chain: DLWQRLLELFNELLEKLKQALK

B1: recombinant human LCAT (lecithin:cholesterol acyltransferase) (protein)
chain: FWLLNVLFPPHTTPKAELSNHTRPVILVPGCLGNQLEAKLDKPDVVNWMCYRKTEDFFTIWLDLNMFLPLGVDCWIDNTRVVYNRSSGLVSNAPGVQIRVPGFGKTYSVEYLDSSKLAGYLHTLVQNLVNNGYVRDETVRAAPYDWRLEPGQQEEYYRKLAGLVEEMHAAYGKPVFLIGHSLGCLHLLYFLLRQPQAWKDRFIDGFISLGAPWGGSIKPMLVLASGDNQGIPIMSSIKLKEEQRITTTSPWMFPSRMAWPEDHVFISTPSFNYTGRDFQRFFADLHFEEGWYMWLQSRDLLAGLPAPGVEVYCLYGVGLPTPRTYIYDHGFPYTDPVGVLYEDGDDTVATRSTELCGLWQGRQPQPVHLLPLHGIQHLNMVFSNLTLEHINAILLGAYRQGPPASPTASPEPPPPE
Take B1: the RELATIVE ACTIVITY (Percent activity relative to SEQ ID: 1); DHE esterification by rhLCAT with peptide mHDL substrate with SEQ ID NO: 3 peptide was determined as 87%; with SEQ ID NO: 5 peptide it was 65%; with SEQ ID NO: 12 peptide, 21%; with SEQ ID NO: 2 peptide it was 94%; with SEQ ID NO: 6 peptide, 65%; with SEQ ID NO: 14 peptide it was 0%. Moreover, the RELATIVE ACTIVITY (Percent activity relative to SEQ ID: 1); DHE esterification by rhLCAT with peptide mHDL substrate was determined as 86% with SEQ ID NO: 4 peptide and 0% with SEQ ID NO: 13 peptide.

The values are drawn from patent publication US20140024061.
